# Reference: FireProtDB (doi:10.1111/j.1432-1033.1992.tb17411.x)
# B1: Cystatin-A wild type, P01040 (protein)
# chain: MIPGGLSEAKPATPEIQEIVDKVKPQLEEKTNETYGKLEAVQYKTQVVAGTNYYIKVRAGDNKYMHLKVFKSLPGQNEDLVLTGYQVDKNKDDELTGF
# B2: Cystatin-B wild type, P04080 (protein)
# chain: MMCGAPSATQPATAETQHIADQVRSQLEEKENKKFPVFKAVSFKSQVVAGTNYFIKVHVGDEDFVHLRVFQSLPHENKPLTLSNYQTNKAKHDELTYF
# Conditions: Homo sapiens; pH 5; Thermal; DSC; Sodium acetate 0.02 M; NaCl 0.13 M; reversible: yes; whole UniProt chain shown
Protein,Tm [°C],unfolding enthalpy (calorimetric) [kcal/mol],unfolding enthalpy (van 't Hoff) [kcal/mol]
B1,90.8,113,129
B2,50.2,70,73

# Same assay, conditions: Homo sapiens; pH 6.5; Thermal; DSC; Sodium phosphate 0.01 M; NaCl 0.13 M; reversible: yes; whole UniProt chain shown
Protein,Tm [°C],unfolding enthalpy (calorimetric) [kcal/mol],unfolding enthalpy (van 't Hoff) [kcal/mol]
B1,94.5,116,148

# Same assay, conditions: Homo sapiens; pH 6.5; Thermal; DSC; Sodium phosphate 0.01 M; NaCl 0.13 M; reversible: no; whole UniProt chain shown
Protein,Tm [°C],unfolding enthalpy (calorimetric) [kcal/mol]
B2,64.9,78

# Same assay, conditions: Homo sapiens; pH 8.1; 10 °C; Thermal; DSC; HEPES 0.01 M; NaCl 0.13 M; reversible: yes; whole UniProt chain shown
row,Protein,unfolding free energy [kcal/mol]
1,B2,6

# Same assay, conditions: Homo sapiens; pH 8.1; 25 °C; Thermal; DSC; HEPES 0.01 M; NaCl 0.13 M; reversible: yes; whole UniProt chain shown
row,Protein,unfolding free energy [kcal/mol]
1,B2,5.9

# Same assay, conditions: Homo sapiens; pH 8.1; 45 °C; Thermal; DSC; HEPES 0.01 M; NaCl 0.13 M; reversible: yes; whole UniProt chain shown
row,Protein,unfolding free energy [kcal/mol]
1,B2,3.99

# Same assay, conditions: Homo sapiens; pH 8.1; 50 °C; Thermal; DSC; HEPES 0.01 M; NaCl 0.13 M; reversible: yes; whole UniProt chain shown
row,Protein,unfolding free energy [kcal/mol]
1,B2,3.2

# Same assay, conditions: Homo sapiens; pH 8.1; Thermal; DSC; HEPES 0.01 M; NaCl 0.13 M; reversible: no; whole UniProt chain shown
Protein,Tm [°C],unfolding enthalpy (calorimetric) [kcal/mol]
B2,65.9,81
